Source: PMC9475539 (The EMBO Journal, 2022)
Positions count from the first letter of the chain named. Names may count otherwise.

B1: TqsA (transporter of quorum-sensing signal AI-2) from Escherichia coli (natural protein, E. coli K-12, UniProt P0AFS5 1-344, looked up)
chain: MAKPIITLNGLKIVIMLGMLVIILCGIRFAAEIIVPFILALFIAVILNPLVQHMVRWRVPRVLAVSILMTIIVMAMVLLLAYLGSALNELTRTLPQYRNSIMTPLQALEPLLQRVGIDVSVDQLAHYIDPNAAMTLLTNLLTQLSNAMSSIFLLLLTVLFMLLEVPQLPGKFQQMMARPVEGMAAIQRAIDSVSHYLVLKTAISIITGLVAWAMLAALDVRFAFVWGLLAFALNYIPNIGSVLAAIPPIAQVLVFNGFYEALLVLAGYLLINLVFGNILEPRIMGRGLGLSTLVVFLSLIFWGWLLGPVGMLLSVPLTIIVKIALEQTAGGQSIAVLLSDLNKE
B2: TqsA E280Q (natural protein, E. coli K-12, UniProt P0AFS5 1-344, looked up)
chain: B1 chain with E280Q
B3: TqsA E164Q (natural protein, E. coli K-12, UniProt P0AFS5 1-344, looked up)
chain: B1 chain with E164Q
B4: TqsA P237A (natural protein, E. coli K-12, UniProt P0AFS5 1-344, looked up)
chain: B1 chain with P237A
B5: TqsA K200L (natural protein, E. coli K-12, UniProt P0AFS5 1-344, looked up)
chain: B1 chain with K200L
B6: TqsA R61L (natural protein, E. coli K-12, UniProt P0AFS5 1-344, looked up)
chain: B1 chain with R61L
B7: TqsA N238L (natural protein, E. coli K-12, UniProt P0AFS5 1-344, looked up)
chain: B1 chain with N238L
B8: TqsA N234L (natural protein, E. coli K-12, UniProt P0AFS5 1-344, looked up)
chain: B1 chain with N234L
B9: YhhT from Escherichia coli (natural protein, E. coli K-12, UniProt P0AGM0 1-349, looked up)
chain: METPQPDKTGMHILLKLASLVVILAGIHAAADIIVQLLLALFFAIVLNPLVTWFIRRGVQRPVAITIVVVVMLIALTALVGVLAASFNEFISMLPKFNKELTRKLFKLQEMLPFLNLHMSPERMLQRMDSEKVVTFTTALMTGLSGAMASVLLLVMTVVFMLFEVRHVPYKMRFALNNPQIHIAGLHRALKGVSHYLALKTLLSLWTGVIVWLGLELMGVQFALMWAVLAFLLNYVPNIGAVISAVPPMIQVLLFNGVYECILVGALFLVVHMVIGNILEPRMMGHRLGMSTMVVFLSLLIWGWLLGPVGMLLSVPLTSVCKIWMETTKGGSKLAILLGPGRPKSRLPG
B10: PerM from Escherichia coli (natural protein, E. coli K-12, UniProt P0AFI9 1-353, looked up)
chain: MLEMLMQWYRRRFSDPEAIALLVILVAGFGIIFFFSGLLAPLLVAIVLAYLLEWPTVRLQSIGCSRRWATSIVLVVFVGILLLMAFVVLPIAWQQGIYLIRDMPGMLNKLSDFAATLPRRYPALMDAGIIDAMAENMRSRMLTMGDSVVKISLASLVGLLTIAVYLVLVPLMVFFLLKDKEQMLNAVRRVLPRNRGLAGQVWKEMNQQITNYIRGKVLEMIVVGIATWLGFLLFGLNYSLLLAVLVGFSVLIPYIGAFVVTIPVVGVALFQFGAGTEFWSCFAVYLIIQALDGNLLVPVLFSEAVNLHPLVIILSVVIFGGLWGFWGVFFAIPLATLIKAVIHAWPDGQIAQE
B11: YdiK from Escherichia coli (natural protein, E. coli K-12, UniProt P0AFS7 1-370, looked up)
chain: MVNVRQPRDVAQILLSVLFLAIMIVACLWIVQPFILGFAWAGTVVIATWPVLLRLQKIMFGRRSLAVLVMTLLLVMVFIIPIALLVNSIVDGSGPLIKAISSGDMTLPDLAWLNTIPVIGAKLYAGWHNLLDMGGTAIMAKVRPYIGTTTTWFVGQAAHIGRFMVHCALMLLFSALLYWRGEQVAQGIRHFATRLAGVRGDAAVLLAAQAIRAVALGVVVTALVQAVLGGIGLAVSGVPYATLLTVLMILSCLVQLGPLPVLIPAIIWLYWTGDTTWGTVLLVWSGVVGTLDNVIRPMLIRMGADLPLILILSGVIGGLIAFGMIGLFIGPVLLAVSWRLFAAWVEEVPPPTDQPEEILEELGEIEKPNK

Legend:
cryo-EM structure = target: the molecule itself; assay: cryo-EM structure
SEC + native gel or EMSA = target: the molecule itself; assay: SEC + native gel or EMSA
[1] = target: the molecule itself; assay: cryo-EM 2D class averages
native gel or EMSA = target: the molecule itself; assay: native gel or EMSA

Protein	stoichiometry N (SEC + native gel or EMSA)	other results
B1		stoichiometry N (cryo-EM structure): 5
B2	5	
B3	5	
B4	5	
B5	5	
B6	5	
B7	5	
B8	5	
B9		stoichiometry N [1]: 5
B10		stoichiometry N (native gel or EMSA): 2
B11		stoichiometry N (cryo-EM structure): 5
